Our source for the stoichiometry N values is paper doi:10.1101/2022.08.11.503658.

Common to all, as to test: SDS-PAGE of lysate kept at 25°C versus heated to 95°C, with immunoblot
Background: Immunoblotting shows a protein as a band on a membrane.

Assay [1] concerns the target C-terminally 6xHis-tagged NoV GII.4 VP1 capsid protein expressed by rSA11/NSP3-2A-VP1His (human norovirus GII.4 MD145-12).
Assay [2] has as its target Rotavirus SA11 NSP3 (wild type, from rSA11/wt) (rotavirus SA11).
The target of assay [3] is Rotavirus SA11 NSP3 linked to remnant residues of the 2A peptide (rotavirus SA11 | porcine teschovirus).
Assay [4] deals with N-terminally 3xFLAG-tagged NoV GII.4 VP1 capsid protein expressed by rSA11/NSP3-2A-fVP1 (human norovirus GII.4 MD145-12).
Assay [5] deals with Rotavirus SA11 VP6 (rotavirus SA11).
Assay [6] has as its target C-terminally 1xFLAG-tagged NoV GII.4 VP1 capsid protein expressed by rSA11/NSP3-2A-VP1f (human norovirus GII.4 MD145-12).

As a reminder, the stoichiometry N is a count of units in the complex or per binding partner. Substance “C-terminally 6xHis-tagged NoV GII.4 VP1 capsid protein expressed by rSA11/NSP3-2A-VP1His (natural protein)” returned a stoichiometry N in assay [1] of 2. “Rotavirus SA11 NSP3 (wild type, from rSA11/wt) (natural protein)” showed a stoichiometry N in assay [2] of 2. For the substance “Rotavirus SA11 NSP3 linked to remnant residues of the 2A peptide”, the stoichiometry N in assay [3] was 2.

“N-terminally 3xFLAG-tagged NoV GII.4 VP1 capsid protein expressed by rSA11/NSP3-2A-fVP1 (natural protein)” had a stoichiometry N in assay [4] of 2. Rotavirus SA11 VP6 (natural protein) had a stoichiometry N in assay [5] of 3.

Regarding “C-terminally 1xFLAG-tagged NoV GII.4 VP1 capsid protein expressed by rSA11/NSP3-2A-VP1f (natural protein)”, the stoichiometry N in assay [6] is 2.
